Literature values in paper PMC11195831.

Biological target: PD-1 (Homo sapiens) (UniProt Q15116)
Assay: SPR

Chain of PD-1 (Homo sapiens) (Q15116 25-170): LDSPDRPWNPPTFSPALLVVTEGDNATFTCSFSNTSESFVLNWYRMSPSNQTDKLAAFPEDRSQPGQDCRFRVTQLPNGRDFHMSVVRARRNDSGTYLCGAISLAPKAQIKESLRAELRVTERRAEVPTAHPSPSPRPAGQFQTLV

Row | Kd | Substance
1 | 0.3 nM | Dostarlimab
2 | 0.6 nM | Retifanlimab
